# Assay results reported in US20240344078A1 (AARHUS UNIVERSITET, published 2024).
# T1: Avi-tagged NFR5 (residues 276-595, Avitag) (Lotus japonicus, biotinylated Avi tag implied by capture on streptavidin biosensors; site not given)
# T1 construct: NFR5 intracellular domain (juxtamembrane, pseudokinase, C-terminal tail) with an N-terminal Avi tag, immobilised on streptavidin biosensors; also called NFR5 Avitag; AviTag NFR5
# T1 chain: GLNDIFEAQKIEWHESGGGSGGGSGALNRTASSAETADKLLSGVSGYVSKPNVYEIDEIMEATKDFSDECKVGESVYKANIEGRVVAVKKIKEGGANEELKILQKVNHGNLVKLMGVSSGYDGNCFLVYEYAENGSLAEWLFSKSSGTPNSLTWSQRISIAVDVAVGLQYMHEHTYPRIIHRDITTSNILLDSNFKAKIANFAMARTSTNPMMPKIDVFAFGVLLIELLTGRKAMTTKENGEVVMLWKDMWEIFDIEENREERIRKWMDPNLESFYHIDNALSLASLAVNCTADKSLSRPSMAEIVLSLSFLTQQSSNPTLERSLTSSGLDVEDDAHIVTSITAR
# T2: C-terminal tailless NFR5 (residues 276-563) (Lotus japonicus)
# T2 construct: Construct used for the SEC complex and the crystal structure with Nb200 (PDB 8S79)
# T2 chain: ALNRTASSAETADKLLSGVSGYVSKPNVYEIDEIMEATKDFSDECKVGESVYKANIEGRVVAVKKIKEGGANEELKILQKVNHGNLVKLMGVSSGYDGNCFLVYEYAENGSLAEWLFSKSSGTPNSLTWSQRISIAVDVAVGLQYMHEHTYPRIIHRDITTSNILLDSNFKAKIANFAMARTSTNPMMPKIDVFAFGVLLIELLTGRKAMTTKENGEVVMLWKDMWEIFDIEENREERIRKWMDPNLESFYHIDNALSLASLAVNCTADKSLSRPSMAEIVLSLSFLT
# B1: VHH Nb200 (VHH)
# VHH: QVQLVESGGGSVQAGDSLRLSCTGPGRTDGPYVMGWFRQAPEKEREFVAAISRYGSGTYYADSVRGRFTISRDNVKNTVYLQMNSLKPEDTAIYYCNRVPPVLSWGQGTQVTVSS
# notes: also called Nb2NFR5
# B2: VHH Nb200 control (A51E Y60E V100E) (VHH)
# VHH: QVQLVESGGGSVQAGDSLRLSCTGPGRTDGPYVMGWFRQAPEKEREFVAEISRYGSGTEYADSVRGRFTISRDNVKNTVYLQMNSLKPEDTAIYYCNREPPVLSWGQGTQVTVSS
# notes: Negative control triple mutant of Nb200; VHHs were cloned with a C-terminal 6xHis tag; also called VHH Nb200 mutant; Nb200 A51E Y60E V100E
# B3: NFR5 intracellular domain (residues 276-595) (receptor)
# chain: ALNRTASSAETADKLLSGVSGYVSKPNVYEIDEIMEATKDFSDECKVGESVYKANIEGRVVAVKKIKEGGANEELKILQKVNHGNLVKLMGVSSGYDGNCFLVYEYAENGSLAEWLFSKSSGTPNSLTWSQRISIAVDVAVGLQYMHEHTYPRIIHRDITTSNILLDSNFKAKIANFAMARTSTNPMMPKIDVFAFGVLLIELLTGRKAMTTKENGEVVMLWKDMWEIFDIEENREERIRKWMDPNLESFYHIDNALSLASLAVNCTADKSLSRPSMAEIVLSLSFLTQQSSNPTLERSLTSSGLDVEDDAHIVTSITAR
# notes: Expressed with an N-terminal thioredoxin-6xHis-TEV fusion tag that was removed by TEV protease before use; also called NFR5 WT
# B4: NFR5 residues 276-595, V294E Y297E V298E (3E) (receptor)
# chain: ALNRTASSAETADKLLSGESGEESKPNVYEIDEIMEATKDFSDECKVGESVYKANIEGRVVAVKKIKEGGANEELKILQKVNHGNLVKLMGVSSGYDGNCFLVYEYAENGSLAEWLFSKSSGTPNSLTWSQRISIAVDVAVGLQYMHEHTYPRIIHRDITTSNILLDSNFKAKIANFAMARTSTNPMMPKIDVFAFGVLLIELLTGRKAMTTKENGEVVMLWKDMWEIFDIEENREERIRKWMDPNLESFYHIDNALSLASLAVNCTADKSLSRPSMAEIVLSLSFLTQQSSNPTLERSLTSSGLDVEDDAHIVTSITAR
# notes: Mutation numbers follow full-length NFR5; also called NFR5 3E; alphaA' 3E
# B5: NFR5 residues 276-595, L290E/L291E (2E) (receptor)
# chain: ALNRTASSAETADKEESGVSGYVSKPNVYEIDEIMEATKDFSDECKVGESVYKANIEGRVVAVKKIKEGGANEELKILQKVNHGNLVKLMGVSSGYDGNCFLVYEYAENGSLAEWLFSKSSGTPNSLTWSQRISIAVDVAVGLQYMHEHTYPRIIHRDITTSNILLDSNFKAKIANFAMARTSTNPMMPKIDVFAFGVLLIELLTGRKAMTTKENGEVVMLWKDMWEIFDIEENREERIRKWMDPNLESFYHIDNALSLASLAVNCTADKSLSRPSMAEIVLSLSFLTQQSSNPTLERSLTSSGLDVEDDAHIVTSITAR
# notes: Mutation numbers follow full-length NFR5; also called NFR5 2E; alphaA 2E
# What was measured:
# [1] = target: T1, Avi-tagged NFR5 (residues 276-595, …); experiment: BLI, Avi-tagged NFR5 on streptavidin biosensors, Nb200 5-0.08 µM, 1:1 association/dissociation fit
# Source text: (§1) The x-axis indicates time in seconds. The y-axis indicates the wavelength shift in nm. […] The x-axis indicates time in seconds. The y-axis indicates the wavelength shift in nm. […] Blue dotted lines demarcate fractions with complex formation, labelled as P1. Elution of excess Nb200 is labelled as P2. The x-axis indicates volume through the column in mL. The y-axis indicates the UV₂₈₀ milli absorbance units (mAu). […] The first lane, “M”, contains a molecular weight ladder, labeled to the left of the gel picture with the respective kDa amount. Lane “Inp” contains a sample of the input. Lanes “P1” contain fractions from the P1 complex section of the purification. Lanes “P2” contain fractions from the P2 section of the purification with excess Nb200. The black horizontal line over lanes indicates fractions pooled. Arrows indicate the proteins of interest.
# (§2) Streptavidin (SA) biosensors (kinetic quality, Molecular devices, FortéBio) were equilibrated in Binding buffer (50 mM Tris-HCl pH 8, 200 mM NαCl, 0.01% TWEEN® 20) before use. AviTag™ NFR5 in Binding buffer was immobilized on SA sensors until 0.1 nm using an Octet® RED96 (Molecular devices, ForteBio) at 25° C. […] Unspecific binding was measured to a biotin loaded SA sensor and was subtracted from the interaction datasets.
# [2] = target: T2, C-terminal tailless NFR5 (residues …); experiment: size exclusion chromatography of NFR5 (residues 276-563) mixed with an excess of Nb200, fractions analysed by SDS-PAGE (co-elution)
# [3] = target: T1, Avi-tagged NFR5 (residues 276-595, …); experiment: bio-layer interferometry; Avi-tagged NFR5 immobilised on streptavidin biosensors, Nb200 control in solution at 0.08-5 µM
# Source text: as §1, §2
# [4] = target: the molecule itself; experiment: dynamic light scattering, concentration series 1-6 mg/ml, self-interaction in solution
# Source text: Diffusion coefficients/concentration plots were used to derive self-interaction parameters, kSI (also known as the diffusion interaction parameter kD), by linear regression in GraphPad prism 9 (Graphstats Technologies).
# It was hypothesized that the exposed juxtamembrane motif could function as a hydrophobic interaction surface. […] The NFR5 pattern resembled the pattern formed by the well-known oligomer forms of Bovine Serum Albumin (FIG. 7B). Dynamic light scattering (DLS) was used to measure the in solution particle size dispersity of the NFR5 sample. […] To investigate whether this self-interaction was mediated by the juxtamembrane motif, two variants were generated with substitutions in either αA (L290E, L291E) or αA′ (V294E, Y297E, V298E) that were referred to as 2E (SEQ ID NO: 148) and 3E (SEQ ID NO: 149), respectively (FIG. 7A). It was hypothesized that the introduction of charged glutamates would abolish hydrophobic interactions engaged by the motif. […] A second DLS experiment was performed to compare the in solution self-interaction of wildtype NFR5 with 2E and 3E by measuring their self-interaction parameter (kSI) over a protein concentration series (FIGS. 7D-7F). […] Next an N-terminal Avi-tagged NFR5 was purified in order to immobilize the NFR5 intracellular domain on a streptavidin biosensor (FIGS. 4A-4D, 7G). The immobilized NFR5 was used in a bio-layer interferometry experiment to measure interaction to WT, 2E, and 3E variants (FIGS. 7H-7J).
# [5] = target: T1, Avi-tagged NFR5 (residues 276-595, …); experiment: bio-layer interferometry; Avi-tagged NFR5 WT immobilised on streptavidin biosensors, NFR5 WT in solution at 0.07-3.6 mg/mL
# Description: (§3) An Avi-tagged version of NFR5 WT (purple) was purified and immobilized on streptavidin biosensors (top box with four-pointed stars representing streptavidin). NFR5 loaded biosensors were assayed against NFR5 WT, 2E (SEQ ID NO: 148), and 3E (SEQ ID NO: 149). […] A clear concentration dependent interaction to NFR5 WT was measured. The x-axis indicates time in seconds; the y-axis indicates nm. […] No interaction was observed. The x-axis indicates time in seconds; the y-axis indicates nm.
# as §2, with “datasets. Data was processed and analyzed in FortéBio Data Analysis 7 (Molecular devices, ForteBio) and GraphPad prism 9 (Graphstats Technologies). […]” for “datasets.”
# [6] = target: T1, Avi-tagged NFR5 (residues 276-595, …); experiment: bio-layer interferometry; Avi-tagged NFR5 WT immobilised on streptavidin biosensors, NFR5 3E in solution at 0.07-3.6 mg/mL
# Description: as §3
# as §2, with “datasets. Data was processed and analyzed in FortéBio Data Analysis 7 (Molecular devices, ForteBio) and GraphPad prism 9 (Graphstats Technologies). […]” for “datasets.”
# [7] = target: T1, Avi-tagged NFR5 (residues 276-595, …); experiment: bio-layer interferometry; Avi-tagged NFR5 WT immobilised on streptavidin biosensors, NFR5 2E in solution at 0.07-3.6 mg/mL
# Description: as §3
# as §2, with “datasets. Data was processed and analyzed in FortéBio Data Analysis 7 (Molecular devices, ForteBio) and GraphPad prism 9 (Graphstats Technologies). […]” for “datasets.”
binder,measurement,setting,value
B1,Kd,[1],174 nM
same,binding result,[2],binds
B2,binding result,[3],no binding (tested: 5 µM)
B3,self-interaction parameter kSI,[4],-14.6 mL/g
same,binding result,[5],binds
B4,self-interaction parameter kSI,[4],-7.1 mL/g
same,binding result,[6],no binding (tested: 3.6 mg/mL)
B5,self-interaction parameter kSI,[4],-10.8 mL/g
same,binding result,[7],no binding (tested: 3.6 mg/mL)
